Assay results from patent US20250075002A1 (BEIGENE SWITZERLAND, published 2025).
Like-named read-outs stand apart in the source and are kept apart here.

Experiments:
human CD16B-His6 (NA2) [1] = target: T1, human CD16B-His6 (NA2) (human, UniProt O75015 17-200); assay: SPR; VHH-Fc captured on anti-human Fc surface; row head prints 'KD (nM)', taken as M like the rest of the table
T1 construct: Bought ECD fragment; also called CD16B NA2; human CD16B (NA2); not shown: six-histidine tag (His6)
T1 chain: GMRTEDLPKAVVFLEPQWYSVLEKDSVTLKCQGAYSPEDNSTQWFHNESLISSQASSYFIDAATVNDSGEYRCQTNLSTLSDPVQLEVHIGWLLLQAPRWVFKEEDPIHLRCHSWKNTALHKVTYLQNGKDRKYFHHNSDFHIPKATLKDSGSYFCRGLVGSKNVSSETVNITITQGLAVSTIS

human CD16B-His6 (NA1) [2] = target: T2, human CD16B-His6 (NA1) (human, UniProt O75015 17-200); assay: as above
T2 construct: Bought ECD fragment; also called CD16B NA1; human CD16B (NA1); not shown: six-histidine tag (His6)
T2 chain: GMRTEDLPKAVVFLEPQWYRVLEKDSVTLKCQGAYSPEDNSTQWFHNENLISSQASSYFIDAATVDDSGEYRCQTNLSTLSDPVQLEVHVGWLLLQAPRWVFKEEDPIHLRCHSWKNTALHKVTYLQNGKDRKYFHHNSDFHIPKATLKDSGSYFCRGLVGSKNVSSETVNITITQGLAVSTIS

[3] = target: T3, human CD16A (F158) on NK92mi cells (human, UniProt P08637 17-254); assay: flow cytometry, biotinylated VHH-Fc on NK92mi/CD16A 158F cells, with 10 mg/ml human IgG1 CB6 as competitor
T3 construct: NK92mi cells co-transduced with CD16A (F158) and FcRgamma cDNAs; also called NK92mi/CD16A F158

[4] = target: T3, human CD16A (F158) on NK92mi cells; assay: flow cytometry, biotinylated VHH-Fc on NK92mi/CD16A 158F cells, without human IgG1 (CB6)
[5] = target: T4, human CD16B (NA2) on NK92mi cells (human, UniProt O75015 17-200); assay: flow cytometry on live NK92mi/CD16B NA2 cells, 300 nM VHH-Fc
T4 construct: also called NK92mi/CD16B (NA2); NK92mi/CD16B NA2
T4 chain: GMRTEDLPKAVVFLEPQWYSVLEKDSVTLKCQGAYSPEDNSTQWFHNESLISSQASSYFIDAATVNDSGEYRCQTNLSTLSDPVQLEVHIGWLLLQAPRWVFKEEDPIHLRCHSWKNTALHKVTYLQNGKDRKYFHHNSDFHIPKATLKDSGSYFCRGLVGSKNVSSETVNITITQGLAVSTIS

[6] = target: T3, human CD16A (F158) on NK92mi cells; assay: flow cytometry on NK92mi/CD16A 158F cells
human CD16A-His6 (V158) [7] = target: T5, human CD16A-His6 (V158) (human, UniProt P08637 17-208); assay: SPR; VHH-Fc captured on anti-human Fc surface
T5 construct: Bought (Sino Biologics) ECD fragment; also called CD16A 158V; human CD16A (V158); not shown: six-histidine tag (His6)

human CD16A-His6 (F158) [8] = target: T6, human CD16A-His6 (F158) (human, UniProt P08637 17-208); assay: SPR; VHH-Fc captured on anti-human Fc surface
T6 construct: Bought ECD fragment; also called human CD16A (F158); not shown: six-histidine tag (His6)

cyno CD16-His6 [9] = target: T7, cyno CD16-His6 (cyno, UniProt Q8SPW2 17-208); assay: SPR; VHH-Fc captured on anti-human Fc surface
T7 construct: Bought ECD fragment; not shown: six-histidine tag (His6)
T7 sequence (Q8SPW2 17-208): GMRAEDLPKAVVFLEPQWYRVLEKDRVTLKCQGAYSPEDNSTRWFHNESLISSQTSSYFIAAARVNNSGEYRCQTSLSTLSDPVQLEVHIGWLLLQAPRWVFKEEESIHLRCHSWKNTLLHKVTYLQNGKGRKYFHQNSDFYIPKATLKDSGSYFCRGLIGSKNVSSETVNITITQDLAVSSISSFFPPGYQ

cyno CD16-His6 [10] = target: T7, cyno CD16-His6; assay: SPR; VHH-Fc captured on anti-human Fc surface; column head prints 'KD (nM)', koff/kon shows M
human CD16A-His6 (V158) [11] = target: T5, human CD16A-His6 (V158); assay: SPR; VHH-Fc captured on anti-human Fc surface; row head prints 'KD (nM)', koff/kon shows M
human CD16A-His6 (F158) [12] = target: T6, human CD16A-His6 (F158); assay: as above
[13] = target: T8, human CD16B (NA1) on NK92mi cells (human, UniProt O75015 17-200); assay: flow cytometry on live NK92mi/CD16B NA1 cells, 300 nM VHH-Fc
T8 construct: also called NK92mi/CD16B (NA1); NK92mi/CD16B NA1
T8 chain: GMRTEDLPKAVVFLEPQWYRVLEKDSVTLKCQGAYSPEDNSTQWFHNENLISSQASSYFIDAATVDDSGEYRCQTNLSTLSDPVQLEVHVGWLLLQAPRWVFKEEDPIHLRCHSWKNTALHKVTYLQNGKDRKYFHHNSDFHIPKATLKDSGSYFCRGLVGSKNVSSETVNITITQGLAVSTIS

human CD16A-His6 (V158) [14] = target: T5, human CD16A-His6 (V158); assay: SPR; VHH-Fc captured on anti-human Fc surface; remark: listed apart in the source
human CD16A-His6 (F158) [15] = target: T6, human CD16A-His6 (F158); assay: SPR; VHH-Fc captured on anti-human Fc surface; remark: listed apart in the source
[16] = target: T3, human CD16A (F158) on NK92mi cells; assay: flow cytometry on live NK92mi/CD16A 158F cells
human CD16A-His6 (V158) [17] = target: T5, human CD16A-His6 (V158); assay: SPR; VHH-Fc captured on anti-human Fc surface; row head prints 'KD (nM)', text gives 0.08 nM, so M
human CD16A-His6 (F158) [18] = target: T6, human CD16A-His6 (F158); assay: as above
human CD16B-His6 (NA2) [19] = target: T1, human CD16B-His6 (NA2); assay: SPR; VHH-Fc captured on anti-human Fc surface; row head prints 'KD (nM)', taken as M like the rest of the table
human CD16B-His6 (NA1) [20] = target: T2, human CD16B-His6 (NA1); assay: as above

| Binder | Kd (human CD16B-His6 (NA2) [1]) [nM] | Kd (human CD16B-His6 (NA1) [2]) [nM] | EC50 [3] [nM] | EMAX (MFI) [3] [MFI] | EC50 [4] [nM] | EMAX (MFI) [4] [MFI] | Binding signal at 300 nM (MFI) [5] [MFI] | EC50 [6] [nM] | EMAX (MFI) [6] [MFI] | koff (human CD16A-His6 (V158) [7]) [s⁻¹] | kon (human CD16A-His6 (V158) [7]) [M⁻¹ s⁻¹] | koff (human CD16A-His6 (F158) [8]) [s⁻¹] | kon (human CD16A-His6 (F158) [8]) [M⁻¹ s⁻¹] | koff (cyno CD16-His6 [9]) [s⁻¹] | kon (cyno CD16-His6 [9]) [M⁻¹ s⁻¹] | Kd (cyno CD16-His6 [10]) [nM] | Kd (human CD16A-His6 (V158) [11]) [nM] | Kd (human CD16A-His6 (F158) [12]) [nM] | Binding signal at 300 nM (MFI) [13] [MFI] | also measured |
| --- | --- | --- | --- | --- | --- | --- | --- | --- | --- | --- | --- | --- | --- | --- | --- | --- | --- | --- | --- | --- |
| BG525P (VHH-Fc) (VHH, Humanized BG523P variant, VHH-Fc) EVQLVESGGGLVQPGGSLRLSCAASGRTFGSYAVGWFRQAPGRGREFVAAIRRSDGTTDYVDSVKGRFTISRDNAKNTVYLQMNSLKPEDTAVYYCAASDSDYEPLGDYWGQGTLVTVSSEPKSSDKTHTCPPCPAPPAAGPSVFLFPPKPKDTLMISRTPEVTCVVVDVSHEDPEVKFNWYVDGVEVHNAKTKPREEQYNSTYRVVSVLTVLHQDWLNGKEYKCKVSNKALAAPIEKTISKAKGQPREPQVYTLPPSREEMTKNQVSLTCLVKGFYPSDIAVEWESNGQPENNYKTTPPVLDSDGSFFLYSKLTVDKSRWQQGNVFSCSVMHEALHNHYTQKSLSLSPGK | 5780 | 2310 | 6.83 | 21900 | 1.65 | 23300 | 75 | 10.3 | 9710 | 0.000103 | 255000 | 0.00012 | 210000 | 0.000112 | 267000 | 0.418 | 0.404 | 0.575 | 733 |  |
| BG524P (VHH-Fc) (VHH, Humanized BG523P variant, VHH fused to the N-terminus of the human IgG1 variant Fc) EVQLVESGGGLVQPGGSLRLSCAASGRTFGSYAVGWFRQAPGKGREWVAAIRRSDATTDYVDSVKGRFTISRDNAKNSVYLQMNSLRPEDTAVYYCAASDSDYEPLGDYWGQGTLVTVSSEPKSSDKTHTCPPCPAPPAAGPSVFLFPPKPKDTLMISRTPEVTCVVVDVSHEDPEVKFNWYVDGVEVHNAKTKPREEQYNSTYRVVSVLTVLHQDWLNGKEYKCKVSNKALAAPIEKTISKAKGQPREPQVYTLPPSREEMTKNQVSLTCLVKGFYPSDIAVEWESNGQPENNYKTTPPVLDSDGSFFLYSKLTVDKSRWQQGNVFSCSVMHEALHNHYTQKSLSLSPGK |  |  |  |  |  |  |  |  |  |  |  |  |  |  |  |  |  |  |  | koff (human CD16A-His6 (V158) [14]): 0.00011 s⁻¹; kon (human CD16A-His6 (V158) [14]): 1.35e+06 M⁻¹ s⁻¹; koff (human CD16A-His6 (F158) [15]): 0.000119 s⁻¹; kon (human CD16A-His6 (F158) [15]): 1.44e+06 M⁻¹ s⁻¹; EC50 [16]: 4.42 nM; Kd (human CD16A-His6 (V158) [17]): 0.0816 nM; Kd (human CD16A-His6 (F158) [18]): 0.0825 nM; Kd (human CD16B-His6 (NA2) [19]): 1050 nM; Kd (human CD16B-His6 (NA1) [20]): 942 nM |
| BG526P (VHH-Fc) (VHH, Humanized BG523P variant, VHH-Fc) EVQLVESGGGLVQPGGSLRLSCAASGRTFGSYAVGWFRQAPGKGREFVAAIRRSDATTDYVDSVKGRFTISRDNAKNTVYLQMNSLKPEDTAVYYCAASDSDYEPLGDYWGQGTLVTVSSEPKSSDKTHTCPPCPAPPAAGPSVFLFPPKPKDTLMISRTPEVTCVVVDVSHEDPEVKFNWYVDGVEVHNAKTKPREEQYNSTYRVVSVLTVLHQDWLNGKEYKCKVSNKALAAPIEKTISKAKGQPREPQVYTLPPSREEMTKNQVSLTCLVKGFYPSDIAVEWESNGQPENNYKTTPPVLDSDGSFFLYSKLTVDKSRWQQGNVFSCSVMHEALHNHYTQKSLSLSPGK | 7640 | 2740 | 4.95 | 19600 | 1.52 | 21600 | 52 | 9.1 | 9200 | 0.000133 | 289000 | 0.000148 | 230000 | 0.000147 | 301000 | 0.49 | 0.425 | 0.64 | 473 |  |
